Test results from the supplement of paper PMC10126150.
± gives the standard deviation of the averaged measurements.

Tested on: ATP
Assay: switch fluorescence ratio, 500 uM ATP over buffer (Cy3 cluster intensity, sum of 5 cycles each) (fold (ratio)); higher = stronger signal-on switching upon ATP binding; sequences stand for … in TCGTCGGCAGCGTCAGATGTGTATAAGAGACAGTTTTTTTTTTTTTTTTTTTTTTTTT…TC
Settings: aptamer strand: ATP DNA aptamer (quencher-CACCTGGGGGAGTATTGCGGAGGAAGG + anchor), 100 nM annealed; ATP concentration: 500 uM
Method in brief: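 Cy3-labelled switching-strand clusters on a modified Illumina MiSeq flow-cell were annealed to 100 nM quencher-labelled ATP aptamer and imaged first in selection buffer, then after 15 min with 500 uM ATP at 22 °C. NaOH stripping and re-annealing separated each of five buffer/ATP cycles, and clusters outside 100-1000 RFU were excluded. The fluorescence ratio sums target-cycle Cy3 intensity over buffer-cycle Cy3 intensity per cluster and averages it per switch-domain sequence.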
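Note: ATP exposure 15 min at 22 °C before imaging.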

Point of comparison: TGGGTATGTT, switch fluorescence ratio 1.02 ± 0.014. Against it:
- TGGGGTTAAA — within error, 0.997 ± 0.016
- TGGGGTTCGT — within error, 0.998 ± 0.066
- TGGGGTTCTG — lower, 0.9832 ± 0.0022
- TGGGGTTTAT — within error, 1.01 ± 0.02
- TGGGGTTTGG — within error, 0.984 ± 0.036
- TGGGTAAAAT — lower, 0.971 ± 0.03
- TGGGTAAAGG — lower, 0.956 ± 0.015
- TGGGTAAATT — lower, 0.983 ± 0.014
- TGGGTAAGCA — within error, 1.03 ± 0.023
- TGGGTAAGTT — within error, 0.996 ± 0.039
- TGGGTACGTC — within error, 0.998 ± 0.026
- TGGGTACTGG — the same, 1.02 ± 0.018
- TGGGTAGATA — within error, 0.985 ± 0.045
- TGGGTAGTGC — within error, 0.997 ± 0.029
- TGGGTATAGA — within error, 1.01 ± 0.032
- TGGGTATTAT — lower, 0.9997 ± 0.0052
- TGGGTCGGGG — lower, 0.985 ± 0.016
- TGGGTGAAAA — lower, 1.001 ± 0.0036
- TGGGTGAAGG — within error, 0.999 ± 0.022
- TGGGTGATAA — within error, 1.04 ± 0.048
- TGGGTGATGT — within error, 0.996 ± 0.066
- TGGGTGCATT — within error, 1.014 ± 0.0044
- TGGGTGCCGA — lower, 0.989 ± 0.011
- TGGGTGCGCA — within error, 1.03 ± 0.025
- TGGGTGGCTC — within error, 1.011 ± 0.0015
- TGGGTGGTGG — lower, 0.983 ± 0.016
- TGGGTGTCCA — within error, 1 ± 0.021
- TGGGTGTGGA — within error, 1.01 ± 0.051
- TGGGTGTTTT — within error, 1.05 ± 0.12
- TGGGTTAAAT — within error, 0.995 ± 0.023
- TGGGTTACAT — within error, 1.01 ± 0.031
- TGGGTTAGAG — lower, 0.9878 ± 0.0052
- TGGGTTAGGC — lower, 0.97 ± 0.013
- TGGGTTATGA — lower, 0.9941 ± 0.0084
- TGGGTTATTG — within error, 0.998 ± 0.019
- TGGGTTCAGG — within error, 1 ± 0.015
- TGGGTTCGTA — within error, 0.994 ± 0.031
- TGGGTTGTTT — within error, 0.986 ± 0.031
- TGGGTTTAAT — within error, 1.03 ± 0.018
- TGGGTTTGTT — within error, 0.986 ± 0.03
- TGGGTTTTAA — within error, 0.999 ± 0.025
- TGGTAAAGGC — within error, 0.979 ± 0.042
- TGGTAAATGG — within error, 1.01 ± 0.019
- TGGTAATAGT — the same, 1.02 ± 0.038
- TGGTAATGTG — within error, 1.01 ± 0.096
- TGGTAATTAT — lower, 0.974 ± 0.023
- TGGTACGGTT — lower, 0.975 ± 0.015
- TGGTAGACGT — lower, 0.968 ± 0.016
- TGGTAGGAGA — lower, 0.979 ± 0.013
- TGGTAGGGGA — within error, 1.04 ± 0.03
- TGGTAGGGGC — the same, 1.02 ± 0.057
- TGGTAGTGGG — lower, 0.98 ± 0.026
- TGGTATAATC — lower, 1.001 ± 0.0038
- TGGTATAGTC — lower, 1.001 ± 0.0059
- TGGTATCAGC — within error, 0.999 ± 0.048
- TGGTATGCCC — within error, 1.04 ± 0.088
- TGGTATGCGG — the same, 1.02 ± 0.013
- TGGTATTTTG — lower, 0.977 ± 0.024
- TGGTCAGCTT — within error, 0.994 ± 0.017
- TGGTCAGGGT — lower, 0.9735 ± 0.0097
- TGGTCCAGG — within error, 1.15 ± 0.14
- TGGTCCTATG — within error, 1.01 ± 0.054
- TGGTCGCATT — within error, 1.01 ± 0.034
- TGGTCGGGGC — lower, 0.974 ± 0.025
- TGGTCGTACG — within error, 0.937 ± 0.071
- TGGTCGTATT — lower, 0.9577 ± 0.0063
- TGGTCGTGTG — within error, 1 ± 0.027
- TGGTCTTCGT — within error, 0.992 ± 0.057
- TGGTGACCGT — within error, 1 ± 0.025
- TGGTGAGGGA — lower, 0.99 ± 0.014
- TGGTGAGGGC — lower, 0.9816 ± 0.0077
- TGGTGCAATC — higher, 2.36 ± 0.86
- TGGTGCAGCT — lower, 1.005 ± 0.0059
- TGGTGCCCAC — within error, 1.01 ± 0.027
- TGGTGCGGCG — higher, 1.09 ± 0.031
- TGGTGCTGTT — within error, 0.985 ± 0.03
- TGGTGGAGGG — within error, 1 ± 0.032
- TGGTGGCACG — lower, 0.965 ± 0.011
- TGGTGGCCCT — within error, 1.01 ± 0.06
- TGGTGGGGTA — within error, 0.998 ± 0.022
- TGGTGGGTCG — within error, 1.08 ± 0.069
- TGGTGGTGGG — the same, 1.02 ± 0.018
- TGGTGGTTCT — within error, 0.987 ± 0.029
- TGGTGTATGG — within error, 1.01 ± 0.035
- TGGTGTGGAA — lower, 0.9806 ± 0.0027
- TGGTGTGGGT — lower, 0.989 ± 0.014
- TGGTGTGTAC — within error, 1.06 ± 0.076
- TGGTGTTTGC — within error, 1 ± 0.038
- TGGTGTTTT — within error, 0.998 ± 0.024
- TGGTTAACAG — within error, 0.999 ± 0.022
- TGGTTAAGAT — within error, 0.999 ± 0.038
- TGGTTATCTT — lower, 0.969 ± 0.011
- TGGTTATGAA — within error, 0.998 ± 0.03
- TGGTTATGGC — lower, 0.923 ± 0.082
- TGGTTATGGT — within error, 0.992 ± 0.037
- TGGTTCATCG — lower, 0.97771 ± 0.00071
- TGGTTCGTCT — within error, 0.955 ± 0.058
- TGGTTCTGTT — lower, 0.975 ± 0.018
- TGGTTGAACG — within error, 0.996 ± 0.019
